Source: the Immune Epitope Database (IEDB)

How the values were obtained:
HLA-A*02:01 [1] = assay: IEDB peptide-MHC binding, purified MHC/competitive/fluorescence; ≥ and ≤ were set here for values at or beyond the usual limits of such assays
HLA-A*24:02 [2] = assay: as above
HLA-A*11:01 [3] = assay: as above; conditions: source organism: Zaire ebolavirus
HLA-B*15:01 [4] = assay: IEDB peptide-MHC binding, purified MHC/competitive/radioactivity; filed as Kd, often an IC50 or EC50 that approximates it; ≥ and ≤ were set here for values at or beyond the usual limits of such assays
HLA-A*30:02 = assay: as above; conditions: source organism: Dengue virus 1 Brazil/97-11/1997
HLA-B*57:01 [5] = assay: as above
HLA-B*58:01 [6] = assay: as above
HLA-A*32:01 = assay: as above; conditions: source organism: Dengue virus 4 Philippines/H241/1956
HLA-A*11:01 [7] = assay: as above; conditions: source organism: Dengue virus 3 Martinique/1243/1999
HLA-B*57:01 [8] = assay: IEDB peptide-MHC binding, purified MHC/direct/fluorescence; filed as Kd, often an IC50 or EC50 that approximates it; ≥ and ≤ were set here for values at or beyond the usual limits of such assays
HLA-B*58:01 [9] = assay: as above
HLA-B*15:17 = assay: as above
HLA-B*53:01 = assay: IEDB peptide-MHC binding, purified MHC/competitive/radioactivity; filed as Kd, often an IC50 or EC50 that approximates it; ≥ and ≤ were set here for values at or beyond the usual limits of such assays; conditions: source organism: Dengue virus 2 Jamaica/1409/1983
HLA-A*24:02 [10] = assay: as above; conditions: source organism: Dengue virus 2 Jamaica/1409/1983
HLA-B*48:01 = assay: IEDB peptide-MHC binding, purified MHC/direct/fluorescence; filed as Kd, often an IC50 or EC50 that approximates it; ≥ and ≤ were set here for values at or beyond the usual limits of such assays
HLA-B*27:05 = assay: as above
HLA-B*44:02 = assay: as above; conditions: source organism: Escherichia coli O157:H7
HLA-A*26:01 = assay: as above; conditions: source organism: Escherichia coli O157:H7
HLA-B*15:01 [11] = assay: as above; conditions: source organism: Escherichia coli O157:H7
HLA-B*08:01 = assay: as above; conditions: source organism: Escherichia coli O157:H7
HLA-A*11:01 [12] = assay: as above; conditions: source organism: Escherichia coli O157:H7
HLA-A*69:01 = assay: as above; conditions: source organism: Escherichia coli O157:H7
HLA-A*31:01 = assay: as above; conditions: source organism: Escherichia coli O157:H7
HLA-A*02:01 [13] = assay: as above; conditions: source organism: Escherichia coli O157:H7
HLA-A*03:01 = assay: as above; conditions: source organism: Escherichia coli O157:H7
HLA-A*01:01 = assay: as above; conditions: source organism: Escherichia coli O157:H7
HLA-B*40:01 = assay: as above; conditions: source organism: Escherichia coli O157:H7
HLA-B*07:02 = assay: as above; conditions: source organism: Escherichia coli O157:H7
[14] = source organism: Sudan ebolavirus
[15] = source organism: Zaire ebolavirus
[16] = source organism: Dengue virus 1 Brazil/97-11/1997
[17] = source organism: Vaccinia virus WR
[18] = source organism: Dengue virus 2 Jamaica/1409/1983
[19] = source organism: Dengue virus 4 Philippines/H241/1956
[20] = source organism: Entamoeba histolytica HM-1:IMSS
[21] = source organism: Lassa virus Josiah
[22] = source organism: Mammarenavirus lassaense
[23] = source organism: Escherichia coli O157:H7

AFSMPLGVV
IC50 (HLA-A*02:01 [1]; [14]): 8990 nM
IC50 (HLA-A*24:02 [2]; [14]): 2820 nM

ANAGQFLSF
IC50 (HLA-A*24:02 [2]; [15]): 578 nM

ATISTSPQS
IC50 (HLA-A*11:01 [3]): 17500 nM
IC50 (HLA-A*02:01 [1]; [15]): ≥ 108000 nM

AVLMLVAHY
Kd (HLA-B*15:01 [4]; [16]): 51.2 nM
Kd (HLA-A*30:02): 2.19 nM

FDAVLYYHM
IC50 (HLA-A*02:01 [1]; [15]): ≥ 309000 nM
IC50 (HLA-A*24:02 [2]; [15]): 12000 nM

FIIKSSYVF
Kd (HLA-B*15:01 [4]; [17]): 3.23 nM

GAAFSGVSW
Kd (HLA-B*57:01 [5]; [18]): 22.8 nM
Kd (HLA-B*58:01 [6]; [18]): 126 nM

GEESASSGK
IC50 (HLA-A*11:01 [3]): ≥ 314000 nM

GSSKIRWIVE
Kd (HLA-B*57:01 [5]; [19]): 868 nM
Kd (HLA-A*32:01): 2260 nM

GSSPIIEVKQ
Kd (HLA-B*57:01 [5]; [19]): 17000 nM

GTNTTTEDH
IC50 (HLA-A*11:01 [3]): ≥ 76900 nM

GTSADLTVEK
Kd (HLA-A*11:01 [7]): 219 nM
Kd (HLA-B*57:01 [5]; source organism: Dengue virus 3 Martinique/1243/1999): 3510 nM

IQAFEAGVD
IC50 (HLA-A*02:01 [1]; [15]): ≥ 210000 nM
IC50 (HLA-A*24:02 [2]; [15]): 32900 nM

ISTLPTEQF
Kd (HLA-B*57:01 [8]; [20]): 238 nM
Kd (HLA-B*58:01 [9]; [20]): 2.2 nM
Kd (HLA-B*15:17; [20]): 6.5 nM

ITAAAWYLW
Kd (HLA-B*15:17; source organism: dengue virus type 2): 6.7 nM
Kd (HLA-B*57:01 [5]; [18]): 0.477 nM
Kd (HLA-B*53:01): 174 nM
Kd (HLA-A*24:02 [10]): 21.5 nM

IWMAPSLTE
IC50 (HLA-A*24:02 [2]; [15]): 256 nM

KAIKILTGF
Kd (HLA-B*57:01 [5]; [19]): 66.7 nM
Kd (HLA-B*58:01 [6]; [19]): 22.4 nM

KATREAQKRA
Kd (HLA-B*57:01 [5]; [18]): 847 nM
Kd (HLA-B*58:01 [6]; [18]): 10700 nM

KFRKSSFFV
IC50 (HLA-A*02:01 [1]; [14]): 7760 nM
IC50 (HLA-A*24:02 [2]; [14]): 449 nM

KLHSGKDVF
Kd (HLA-B*15:01 [4]; [16]): 4.82 nM

KLRQIVAYF
Kd (HLA-B*15:01 [4]; [17]): 7.59 nM

KQAKAPESK
Kd (HLA-B*48:01; [21]): ≥ 20000 nM
Kd (HLA-B*27:05; [21]): 704 nM

KRASPILRF
Kd (HLA-B*48:01; [22]): ≥ 20000 nM
Kd (HLA-B*27:05; [22]): 87 nM

KTTIKFHPW
Kd (HLA-B*44:02): ≥ 20000 nM
Kd (HLA-A*26:01): ≥ 20000 nM
Kd (HLA-B*15:01 [11]): ≥ 20000 nM
Kd (HLA-B*08:01): ≥ 20000 nM
Kd (HLA-A*11:01 [12]): ≥ 20000 nM
Kd (HLA-A*69:01): ≥ 20000 nM
Kd (HLA-B*57:01 [8]; [23]): 215 nM
Kd (HLA-A*31:01): 333 nM
Kd (HLA-B*27:05; [23]): ≥ 20000 nM
Kd (HLA-A*02:01 [13]): ≥ 20000 nM
Kd (HLA-B*58:01 [9]; [23]): 47.5 nM
Kd (HLA-A*03:01): ≥ 20000 nM
Kd (HLA-A*01:01): ≥ 20000 nM
Kd (HLA-B*15:17; [23]): 27.8 nM
Kd (HLA-B*40:01): ≥ 20000 nM
Kd (HLA-B*07:02): ≥ 20000 nM
